Experimental findings from US20120316071A1 (published 2012) are described below.

Test [1] concerns the target T1, Recombinant Human DLL4 (human, UniProt Q9NR61 27-524).
T1 construct: Bought recombinant human DLL4 (R&D Systems Cat#1506-D4/CF); That entry includes the signal peptide (amino acids 1-25), the transmembrane region and the cytoplasmic domain; also called delta-like protein 4; Delta-like ligand 4
Description: ELISA, DLL4 coated on plate, Fab in solution, absorbance at 450 nm; signal minus noise. (In an ELISA, binding on a coated surface is turned into a signal by an enzyme label.)

For test [2], the target named is T1, Recombinant Human DLL4. Description: ECL (MSD) multispot binding assay, DLL4 spotted on plate, purified Fab in solution; signal over blank.
The target of test [3] is T2, Recombinant Human DLL4 (delta-like protein 4) (human, UniProt Q9NR61 27-524).
T2 construct: Bought recombinant human DLL4 (R&D Systems Cat#1506-D4/CF); also called rHuman DLL4; Delta-like 4
Description: ELISA, DLL4 coated on plate, Fab at 50 nM.

The target of test [4] is T2, Recombinant Human DLL4 (delta-like …). Description: ELISA, DLL4 coated on plate, Fab at 50 nM. This is another data set of the same source.
Test [5] shares this target. Description: ELISA, DLL4 coated on plate, Fab at 75 nM.
Test [6] shares this target. Description: ELISA, DLL4 coated on plate, Fab at 100 nM.
Test [7] shares this target. Description: ELISA, DLL4 coated on plate, Fab at 200 nM.
Test [8] has the same target. Description: ELISA, DLL4 coated on plate, Fab at 400 nM.
For test [9] the target is unchanged. Description: ELISA, DLL4 coated on plate, Fab at 100 nM. The source holds these as a separate data set.
For test [10] the target is unchanged. Description: ELISA, DLL4 coated on plate, Fab at 25 nM (first 25 nM row).
Test [11] has the same target. Description: ELISA, DLL4 coated on plate, Fab at 25 nM (second 25 nM row).
The target is the same in test [12]. Description: ELISA, DLL4 coated on plate, Fab at 0 nM (no-Fab background).
The target is the same in test [13]. Description: ELISA, DLL4 coated on plate, Fab at 0 nM (no-Fab background, first 0 row).
Test [14] has the same target. Description: ELISA, DLL4 coated on plate, Fab at 0 nM (no-Fab background, second 0 row).
The target in test [15] is T3, Recombinant Human DLL4 (delta-like protein 4) (human, UniProt Q9NR61 27-524).
T3 construct: also called rHuman DLL4
Description: ECL (Meso Scale Discovery) binding assay on immobilised DLL4, Fab 10 nM.

B1: Fab VH5-51_IGHD5-18*01>3_IGHJ4*01 G100K/G104T F29A & V3-4_IGLJ1*01 (Fab, V domains shown)
VH: EVQLVQSGAEVKKPGESLKISCKGSGYSATSYWIGWVRQMPGKGLEWMGIIYPGDSDTRYSPSFQGQVTISADKSISTAYLQWSSLKASDTAMYYCARRKYSYTYDYFDYWGQGTLVTVSS
VL: QTVVTQEPSFSVSPGGTVTLTCGLSSGSVSTSYYPSWYQQTPGQAPRTLIYSTNTRSSGVPDRFSGSILGNKAALTITGAQADDESDYYCVLYMGSGISYVFGTGTKVTVL
notes: Fab expressed in E. coli with CH1 (plasmid A, His6 and Flag tags) and lambda CL (plasmid E); also called KT F29A
Take B1: the “ELISA (Signal-Noise)” value with Recombinant Human DLL4 [1] amounted to 0.02. In addition, in the test with Recombinant Human DLL4 [2], the “ECL Signal/Blank” value came out at 67.9.

B2: Fab VH5-51_IGHD5-18*01>3_IGHJ4*01 G100K/G104T T30A & V3-4_IGLJ1*01 (Fab, V domains shown)
VH: EVQLVQSGAEVKKPGESLKISCKGSGYSFASYWIGWVRQMPGKGLEWMGIIYPGDSDTRYSPSFQGQVTISADKSISTAYLQWSSLKASDTAMYYCARRKYSYTYDYFDYWGQGTLVTVSS
VL: QTVVTQEPSFSVSPGGTVTLTCGLSSGSVSTSYYPSWYQQTPGQAPRTLIYSTNTRSSGVPDRFSGSILGNKAALTITGAQADDESDYYCVLYMGSGISYVFGTGTKVTVL
notes: Fab expressed in E. coli with CH1 (plasmid A, His6 and Flag tags) and lambda CL (plasmid E); also called KT T30A
As to B2, the “ELISA (Signal-Noise)” value with Recombinant Human DLL4 [1] was 0. Moreover, in the test with Recombinant Human DLL4 [2], the “ECL Signal/Blank” value came to 69.4.

B3: Fab VH5-51_IGHD5-18*01>3_IGHJ4*01 G100K/G104T S28A & V3-4_IGLJ1*01 (Fab, V domains shown)
VH: EVQLVQSGAEVKKPGESLKISCKGSGYAFTSYWIGWVRQMPGKGLEWMGIIYPGDSDTRYSPSFQGQVTISADKSISTAYLQWSSLKASDTAMYYCARRKYSYTYDYFDYWGQGTLVTVSS
VL: QTVVTQEPSFSVSPGGTVTLTCGLSSGSVSTSYYPSWYQQTPGQAPRTLIYSTNTRSSGVPDRFSGSILGNKAALTITGAQADDESDYYCVLYMGSGISYVFGTGTKVTVL
notes: Fab expressed in E. coli with CH1 (plasmid A, His6 and Flag tags) and lambda CL (plasmid E); also called KT S28A
Take B3: in the test with Recombinant Human DLL4 [1], the “ELISA (Signal-Noise)” value was 0.01. Besides, in the test with Recombinant Human DLL4 [2], the “ECL Signal/Blank” value came out at 112.

B4: Fab VH5-51_IGHD5-18*01>3_IGHJ4*01 G100K/G104T G24A & V3-4_IGLJ1*01 (Fab, V domains shown)
VH: EVQLVQSGAEVKKPGESLKISCKASGYSFTSYWIGWVRQMPGKGLEWMGIIYPGDSDTRYSPSFQGQVTISADKSISTAYLQWSSLKASDTAMYYCARRKYSYTYDYFDYWGQGTLVTVSS
VL: QTVVTQEPSFSVSPGGTVTLTCGLSSGSVSTSYYPSWYQQTPGQAPRTLIYSTNTRSSGVPDRFSGSILGNKAALTITGAQADDESDYYCVLYMGSGISYVFGTGTKVTVL
notes: Fab expressed in E. coli with CH1 (plasmid A, His6 and Flag tags) and lambda CL (plasmid E); also called KT G24A
Take B4: the “ELISA (Signal-Noise)” value with Recombinant Human DLL4 [1] was 0.02. In the test with Recombinant Human DLL4 [2], the “ECL Signal/Blank” value is 122.

B5: Fab VH5-51_IGHD5-18*01>3_IGHJ4*01 G100K/G104T G35A & V3-4_IGLJ1*01 (Fab, V domains shown)
VH: EVQLVQSGAEVKKPGESLKISCKGSGYSFTSYWIAWVRQMPGKGLEWMGIIYPGDSDTRYSPSFQGQVTISADKSISTAYLQWSSLKASDTAMYYCARRKYSYTYDYFDYWGQGTLVTVSS
VL: QTVVTQEPSFSVSPGGTVTLTCGLSSGSVSTSYYPSWYQQTPGQAPRTLIYSTNTRSSGVPDRFSGSILGNKAALTITGAQADDESDYYCVLYMGSGISYVFGTGTKVTVL
notes: Fab expressed in E. coli with CH1 (plasmid A, His6 and Flag tags) and lambda CL (plasmid E); also called KT G35A
Turning to B5, in the test with Recombinant Human DLL4 [1], the “ELISA (Signal-Noise)” value was 0.02. For the same molecule, in the test with Recombinant Human DLL4 [2], the “ECL Signal/Blank” value came out at 180.

B6: Fab VH1-46_IGHD6-6*01_IGHJ1*01 S102A/S103P/S104F/H111F & L6_IGKJ1*01 (Fab, V domains shown)
VH: QVQLVQSGAEVKKPGASVKVSCKASGYTFTSYYMHWVRQAPGQGLEWMGIINPSGGSTSYAQKFQGRVTMTRDTSTSTVYMELSSLRSEDTAVYYCAREEYAPFSAEYFQFWGQGTLVTVSS
VL: not shown
notes: Tested as a Fab made in E. coli; also called H:APFF & L:wt; APFF
On to B6, for which the ELISA signal in test [3] is 0.06; in test [4], 0.06; in test [5], 0.072; in test [6] it was 0.07; in test [7] it was 0.1; in test [8], 0.13. The ELISA signal came out at 0.072 in test [9]; 0.02 in test [10]; 0.03 in test [11]; 0.006 in [12]; 0 in [13]; 0 in test [14].

B7: Fab VH1-46_IGHD6-6*01_IGHJ1*01 S102A/S103P/S104F/H111F (APFF) & L6_IGKJ1*01 S76Y (Fab, V domains shown)
VH: QVQLVQSGAEVKKPGASVKVSCKASGYTFTSYYMHWVRQAPGQGLEWMGIINPSGGSTSYAQKFQGRVTMTRDTSTSTVYMELSSLRSEDTAVYYCAREEYAPFSAEYFQFWGQGTLVTVSS
VL: EIVLTQSPATLSLSPGERATLSCRASQSVSSYLAWYQQKPGQAPRLLIYDASNRATGIPARFSGSGSGTDFTLTIYSLEPEDFAVYYCQQRSNWPPWTFGQGTKVEIKR
notes: Fab made in E. coli: VH in plasmid A (CH1, His6 and Flag tags), VL in plasmid C (kappa CL); also called H:APFF & L6_IGKJ1*01 S76Y
As for B7, in test [15], the “Signal [10 nM Fab]” value was 14800.

B8: Fab VH1-46_IGHD6-6*01_IGHJ1*01 S102A/S103P/S104F/H111F (APFF) & L6_IGKJ1*01 (Fab, V domains shown)
VH: QVQLVQSGAEVKKPGASVKVSCKASGYTFTSYYMHWVRQAPGQGLEWMGIINPSGGSTSYAQKFQGRVTMTRDTSTSTVYMELSSLRSEDTAVYYCAREEYAPFSAEYFQFWGQGTLVTVSS
VL: not shown
notes: Fab made in E. coli: VH in plasmid A (CH1, His6 and Flag tags), VL in plasmid C (kappa CL); also called H:APFF & L:wt; APFF mutant
Turning to B8, the “Signal [10 nM Fab]” value in test [15] came out at 13500.

B9: Fab VH1-46_IGHD6-6*01_IGHJ1*01 S102A/S103P/S104F/H111F/G56A & L6_IGKJ1*01 S28N/S30D/S31H (Fab, V domains shown)
VH: QVQLVQSGAEVKKPGASVKVSCKASGYTFTSYYMHWVRQAPGQGLEWMGIINPSGASTSYAQKFQGRVTMTRDTSTSTVYMELSSLRSEDTAVYYCAREEYAPFSAEYFQFWGQGTLVTVSS
VL: EIVLTQSPATLSLSPGERATLSCRASQNVDHYLAWYQQKPGQAPRLLIYDASNRATGIPARFSGSGSGTDFTLTISSLEPEDFAVYYCQQRSNWPPWTFGQGTKVEIKR
notes: Tested as a Fab; also called H:APFF G56A & L:NDH
Take B9: the ELISA signal was 0.366 in [4], 0.543 in test [5], 0.453 in test [9] and 0.002 in test [12].

B10: Fab VH1-46_IGHD6-6*01_IGHJ1*01 S102A/S103P/S104F/H111F (APFF) & L6_IGKJ1*01 S76G (Fab, V domains shown)
VH: QVQLVQSGAEVKKPGASVKVSCKASGYTFTSYYMHWVRQAPGQGLEWMGIINPSGGSTSYAQKFQGRVTMTRDTSTSTVYMELSSLRSEDTAVYYCAREEYAPFSAEYFQFWGQGTLVTVSS
VL: EIVLTQSPATLSLSPGERATLSCRASQSVSSYLAWYQQKPGQAPRLLIYDASNRATGIPARFSGSGSGTDFTLTIGSLEPEDFAVYYCQQRSNWPPWTFGQGTKVEIKR
notes: Fab made in E. coli: VH in plasmid A (CH1, His6 and Flag tags), VL in plasmid C (kappa CL); also called H:APFF & L6_IGKJ1*01 S76G
Take B10: the “Signal [10 nM Fab]” value in test [15] was 13400.

B11: Fab VH1-46_IGHD6-6*01_IGHJ1*01 S102A/S103P/S104F/H111F (APFF) & L6_IGKJ1*01 S76L (Fab, V domains shown)
VH: QVQLVQSGAEVKKPGASVKVSCKASGYTFTSYYMHWVRQAPGQGLEWMGIINPSGGSTSYAQKFQGRVTMTRDTSTSTVYMELSSLRSEDTAVYYCAREEYAPFSAEYFQFWGQGTLVTVSS
VL: EIVLTQSPATLSLSPGERATLSCRASQSVSSYLAWYQQKPGQAPRLLIYDASNRATGIPARFSGSGSGTDFTLTILSLEPEDFAVYYCQQRSNWPPWTFGQGTKVEIKR
notes: Fab made in E. coli: VH in plasmid A (CH1, His6 and Flag tags), VL in plasmid C (kappa CL); also called H:APFF & L6_IGKJ1*01 S76L
In the case of B11, the “Signal [10 nM Fab]” value in [15] is 13700.

B12: Fab VH1-46_IGHD6-6*01_IGHJ1*01 S102A/S103P/S104F/H111F/S54A & L6_IGKJ1*01 S28N/S30D/S31H (Fab, V domains shown)
VH: QVQLVQSGAEVKKPGASVKVSCKASGYTFTSYYMHWVRQAPGQGLEWMGIINPAGGSTSYAQKFQGRVTMTRDTSTSTVYMELSSLRSEDTAVYYCAREEYAPFSAEYFQFWGQGTLVTVSS
VL: EIVLTQSPATLSLSPGERATLSCRASQNVDHYLAWYQQKPGQAPRLLIYDASNRATGIPARFSGSGSGTDFTLTISSLEPEDFAVYYCQQRSNWPPWTFGQGTKVEIKR
notes: Tested as a Fab; also called H:APFF S54A & L:NDH
As to B12, the ELISA signal in test [4] amounted to 0.154; in test [5] it was 0.212; in test [9], 0.213; in test [12] it was 0.

B13: Fab VH1-46_IGHD6-6*01_IGHJ1*01 S102A/S103P/S104F/H111F (APFF) & L6_IGKJ1*01 S76T (Fab, V domains shown)
VH: QVQLVQSGAEVKKPGASVKVSCKASGYTFTSYYMHWVRQAPGQGLEWMGIINPSGGSTSYAQKFQGRVTMTRDTSTSTVYMELSSLRSEDTAVYYCAREEYAPFSAEYFQFWGQGTLVTVSS
VL: EIVLTQSPATLSLSPGERATLSCRASQSVSSYLAWYQQKPGQAPRLLIYDASNRATGIPARFSGSGSGTDFTLTITSLEPEDFAVYYCQQRSNWPPWTFGQGTKVEIKR
notes: Fab made in E. coli: VH in plasmid A (CH1, His6 and Flag tags), VL in plasmid C (kappa CL); also called H:APFF & L6_IGKJ1*01 S76T
For B13, the “Signal [10 nM Fab]” value in test [15] was 15700.
